# Results published in the supplement of paper PMC5998384.
# Tests used:
# [1] = test system: HeLa Kyoto; assay: solubility in G1/S (NP-40 vs SDS abundance) (log2 ratio); higher = more soluble; details: cell cycle stage: G1/S
# [2] = test system: HeLa Kyoto; assay: melting temperature (median over replicates), in situ; higher = more thermally stable
# [3] = test system: HeLa Kyoto; assay: solubility change mitosis vs G1/S (difference of NP-40 vs SDS log2 ratios) (log2 ratio difference); higher = more soluble in mitosis
# 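Wherever melting temperature (median over replicates), in situ is given: HeLa Kyoto cells synchronized by double thymidine or nocodazole block, proteins quantified by TMT10plex mass spectrometry, three independent biological replicates.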
# 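Wherever solubility change mitosis vs G1/S (difference of NP-40 vs SDS log2 ratios) is given: synchronized HeLa Kyoto cells (double thymidine block for G1/S, nocodazole release for mitosis), protein amounts in NP-40 versus SDS lysates quantified by mass spectrometry, three biological replicates.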
# 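Wherever solubility in G1/S (NP-40 vs SDS abundance) is given: HeLa Kyoto cells arrested at G1/S by double thymidine block, proteins quantified by TMT10plex mass spectrometry in mild NP-40 versus SDS extracts, three biological replicates.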
# Sequence of MARK1 (chain, as listed by the source): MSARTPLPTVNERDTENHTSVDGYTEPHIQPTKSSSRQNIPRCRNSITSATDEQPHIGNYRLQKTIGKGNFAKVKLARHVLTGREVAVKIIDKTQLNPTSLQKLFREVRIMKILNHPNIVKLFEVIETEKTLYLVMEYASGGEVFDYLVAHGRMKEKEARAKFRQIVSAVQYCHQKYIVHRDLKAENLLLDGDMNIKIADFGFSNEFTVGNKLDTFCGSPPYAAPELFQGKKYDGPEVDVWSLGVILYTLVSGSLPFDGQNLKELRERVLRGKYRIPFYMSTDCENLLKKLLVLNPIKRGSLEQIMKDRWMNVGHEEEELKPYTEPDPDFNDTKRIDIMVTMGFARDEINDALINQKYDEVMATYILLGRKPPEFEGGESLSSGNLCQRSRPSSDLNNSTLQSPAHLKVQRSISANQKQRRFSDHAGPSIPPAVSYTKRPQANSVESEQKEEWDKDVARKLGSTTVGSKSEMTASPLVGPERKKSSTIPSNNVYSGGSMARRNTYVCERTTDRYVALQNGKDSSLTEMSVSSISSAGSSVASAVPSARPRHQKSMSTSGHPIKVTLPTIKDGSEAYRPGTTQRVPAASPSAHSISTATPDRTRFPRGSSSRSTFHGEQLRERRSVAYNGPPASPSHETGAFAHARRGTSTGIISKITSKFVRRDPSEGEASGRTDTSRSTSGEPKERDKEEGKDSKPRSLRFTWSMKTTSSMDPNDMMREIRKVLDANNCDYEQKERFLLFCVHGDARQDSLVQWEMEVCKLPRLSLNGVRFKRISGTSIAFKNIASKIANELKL
Substance,solubility in G1/S (log2) [1],melting temperature ([2]; cell cycle stage: G1/S) [°C],melting temperature ([2]; cell cycle stage: mitosis) [°C],solubility change mitosis (log2) [3]
MEESEPERKRARTDEVPAGGSRSEAEDEDDEDYVPYVPLRQRRQLLLQKLLQRRRKGAAEEEQQDSGSEPRGDEDDIPLGPQSNVSLLDQHQHLKEKAEARKESAKEKQLKEEEKILESVAEGRALMSVKEMAKGITYDDPIKTSWTPPRYVLSMSEERHERVRKKYHILVEGDGIPPPIKSFKEMKFPAAILRGLKKKGIHHPTPIQIQGIPTILSGRDMIGIAFTGSGKTLVFTLPVIMFCLEQEKRLPFSKREGPYGLIICPSRELARQTHGILEYYCRLLQEDSSPLLRCALCIGGMSVKEQMETIRHGVHMMVATPGRLMDLLQKKMVSLDICRYLALDEADRMIDMGFEGDIRTIFSYFKGQRQTLLFSATMPKKIQNFAKSALVKPVTINVGRAGAASLDVIQEVEYVKEEAKMVYLLECLQKTPPPVLIFAEKKADVDAIHEYLLLKGVEAVAIHGGKDQEERTKAIEAFREGKKDVLVATDVASKGLDFPAIQHVINYDMPEEIENYVHRIGRTGRSGNTGIATTFINKACDESVLMDLKALLLEAKQKVPPVLQVLHCGDESMLDIGGERGCAFCGGLGHRITDCPKLEAMQTKQVSNIGRKDYLAHSSMDF [DDX41],-0.425,47.5,49,0.325
MPLRKMKIPFLLLFFLWEAESHAASRPNIILVMADDLGIGDPGCYGNKTIRTPNIDRLASGGVKLTQHLAASPLCTPSRAAFMTGRYPVRSGMASWSRTGVFLFTASSGGLPTDEITFAKLLKDQGYSTALIGKWHLGMSCHSKTDFCHHPLHHGFNYFYGISLTNLRDCKPGEGSVFTTGFKRLVFLPLQIVGVTLLTLAALNCLGLLHVPLGVFFSLLFLAALILTLFLGFLHYFRPLNCFMMRNYEIIQQPMSYDNLTQRLTVEAAQFIQRNTETPFLLVLSYLHVHTALFSSKDFAGKSQHGVYGDAVEEMDWSVGQILNLLDELRLANDTLIYFTSDQGAHVEEVSSKGEIHGGSNGIYKGGKANNWEGGIRVPGILRWPRVIQAGQKIDEPTSNMDIFPTVAKLAGAPLPEDRIIDGRDLMPLLEGKSQRSDHEFLFHYCNAYLNAVRWHPQNSTSIWKAFFFTPNFNPVGSNGCFATHVCFCFGSYVTHHDPPLLFDISKDPRERNPLTPASEPRFYEILKVMQEAADRHTQTLPEVPDQFSWNNFLWKPWLQLCCPSTGLSCQCDREKQDKRLSR,0.0818,55.8,55.3,-0.0688
MARK1,-0.155,–,49,-0.0417
MAASTASHRPIKGILKNKTSTTSSMVASAEQPRGNVDEELSKKSQKWDEMNILATYHPADKDYGLMKIDEPSTPYHSMMGDDEDACSDTEATEAMAPDILARKLAAAEGLEPKYRIQEQESSGEEDSDLSPEEREKKRQFEMKRKLHYNEGLNIKLARQLISKDLHDDDEDEEMLETADGESMNTEESNQGSTPSDQQQNKLRSS [PPP1R2],0.172,59.3,52.4,0.383
MMFRDQVGILAGWFKGWNECEQTVALLSLLKRVTRTQARFLQLCLEHSLADCNDIHLLESEANSAAIVSQWQQESKEKVVSLLLSHLPLLQPGNTEAKSEYMRLLQKVLAYSIESNAFIEESRQLLSYALIHPATTLEDRNALALWLSHLEERLASGFRSRPEPSYHSRQGSDEWGGPAELGPGEAGPGWQDKPPRENGHVPFHPSSSVPPAINSIGSNANTGLPCQIHPSPLKRSMSLIPTSPQVPGEWPSPEELGARAAFTTPDHAPLSPQSSVASSGSEQTEEQGSSRNTFQEDGSGMKDVPSWLKSLRLHKYAALFSQMSYEEMMTLTEQHLESQNVTKGARHKIALSIQKLRERQSVLKSLEKDVLEGGNLRNALQELQQIIITPIKAYSVLQATVAAATTTPTAKDGAPGEPPLPGAEPPLAHPGTDKGTEAKDPPAVENYPPPPAPAPTDGSEPAPAPVADGDIPSQFTRVMGKVCTQLLVSRPDEENITSYLQLIEKCLTHEAFTETQKKRLLSWKQQVLKLLRTFPRKAALEMQNYRQQKGWAFGSNSLPIAGSVGMGVARRTQRQFPMPPRALPPGRMGLLSPSGIGGVSPRHALTSPSLGGQGRQNLWFANPGGSNSMPSQSRSSVQRTHSLPVHSSPQAILMFPPDCPVPGPDLEINPTLESLCLSMTEHALGDGTDKTSTI [SAMD4B],0.549,50.8,51.4,-0.0818
MDDKAFTKELDQWVEQLNECKQLNENQVRTLCEKAKEILTKESNVQEVRCPVTVCGDVHGQFHDLMELFRIGGKSPDTNYLFMGDYVDRGYYSVETVTLLVALKVRYPERITILRGNHESRQITQVYGFYDECLRKYGNANVWKYFTDLFDYLPLTALVDGQIFCLHGGLSPSIDTLDHIRALDRLQEVPHEGPMCDLLWSDPDDRGGWGISPRGAGYTFGQDISETFNHANGLTLVSRAHQLVMEGYNWCHDRNVVTIFSAPNYCYRCGNQAAIMELDDTLKYSFLQFDPAPRRGEPHVTRRTPDYFL [PPP2CB],0.0545,45.7,54.8,-0.00731
MASQNRDPAATSVAAARKGAEPSGGAARGPVGKRLQQELMTLMMSGDKGISAFPESDNLFKWVGTIHGAAGTVYEDLRYKLSLEFPSGYPYNAPTVKFLTPCYHPNVDTQGNICLDILKEKWSALYDVRTILLSIQSLLGEPNIDSPLNTHAAELWKNPTAFKKYLQETYSKQVTSQEP [UBE2C],-0.443,–,49.9,0.955
MLDHKDLEAEIHPLKNEERKSQENLGNPSKNEDNVKSAPPQSRLSRCRAAAFFLSLFLCLFVVFVVSFVIPCPDRPASQRMWRIDYSAAVIYDFLAVDDINGDRIQDVLFLYKNTNSSNNFSRSCVDEGFSSPCTFAAAVSGANGSTLWERPVAQDVALVECAVPQPRGSEAPSACILVGRPSSFIAVNLFTGETLWNHSSSFSGNASILSPLLQVPDVDGDGAPDLLVLTQEREEVSGHLYSGSTGHQIGLRGSLGVDGESGFLLHVTRTGAHYILFPCASSLCGCSVKGLYEKVTGSGGPFKSDPHWESMLNATTRRMLSHSSGAVRYLMHVPGNAGADVLLVGSEAFVLLDGQELTPRWTPKAAHVLRKPIFGRYKPDTLAVAVENGTGTDRQILFLDLGTGAVLCSLALPSLPGGPLSASLPTADHRSAFFFWGLHELGSTSETETGEARHSLYMFHPTLPRVLLELANVSTHIVAFDAVLFEPSRHAAYILLTGPADSEAPGLVSVIKHKVRDLVPSSRVVRLGEGGPDSDQAIRDRFSRLRYQSEA [ITFG3],0.275,57.6,57.1,0.0404
MSSKKAKTKTTKKRPQRATSNVFAMFDQSQIQEFKEAFNMIDQNRDGFIDKEDLHDMLASLGKNPTDAYLDAMMNEAPGPINFTMFLTMFGEKLNGTDPEDVIRNAFACFDEEATGTIQEDYLRELLTTMGDRFTDEEVDELYREAPIDKKGNFNYIEFTRILKHGAKDKDD [MYL12B],0.24,54,52.7,0.538
MAAFRDIEEVSQGLLSLLGANRAEAQQRRLLGRHEQVVERLLETQDGAEKQLREILTMEKEVAQSLLNAKEQVHQGGVELQQLEAGLQEAGEEDTRLKASLLQLTRELEELKEIEADLERQEKEVDEDTTVTIPSAVYVAQLYHQVSKIEWDYECEPGMVKGIHHGPSVAQPIHLDSTQLSRKFISDYLWSLVDTEW [SPC24],-0.0462,49.2,49.4,0.363
MEQPWPPPGPWSLPRAEGEAEEESDFDVFPSSPRCPQLPGGGAQMYSHGIELACQKQKEFVKSSVACKWNLAEAQQKLGSLALHNSESLDQEHAKAQTAVSELRQREEEWRQKEEALVQREKMCLWSTDAISKDVFNKSFINQDKRKDTEDEDKSESFMQKYEQKIRHFGMLSRWDDSQRFLSDHPYLVCEETAKYLILWCFHLEAEKKGALMEQIAHQAVVMQFIMEMAKNCNVDPRGCFRLFFQKAKAEEEGYFEAFKNELEAFKSRVRLYSQSQSFQPMTVQNHVPHSGVGSIGLLESLPQNPDYLQYSISTALCSLNSVVHKEDDEPKMMDTV [CDC37L1],0.655,46.3,50.9,-0.0113
MATQAHSLSYAGCNFLRQRLVLSTLSGRPVKIRKIRARDDNPGLRDFEASFIRLLDKITNGSRIEINQTGTTLYYQPGLLYGGSVEHDCSVLRGIGYYLESLLCLAPFMKHPLKIVLRGVTNDQVDPSVDVLKATALPLLKQFGIDGESFELKIVRRGMPPGGGGEVVFSCPVRKVLKPIQLTDPGKIKRIRGMAYSVRVSPQMANRIVDSARSILNKFIPDIYIYTDHMKGVNSGKSPGFGLSLVAETTSGTFLSAELASNPQGQGAAVLPEDLGRNCARLLLEEIYRGGCVDSTNQSLALLLMTLGQQDVSKVLLGPLSPYTIEFLRHLKSFFQIMFKIETKPCGEELKGGDKVLMTCVGIGFSNLSKTLK [RCL1],-1.92,52.4,52.3,0.888
